What was measured:
[1] = target: Human tyrosinase (human), P14679; assay: cell-based or functional assay
[2] = target: Mushroom tyrosinase (mushroom), C7FF04; assay: cell-based or functional assay

Chain of Human tyrosinase (human), P14679 (P14679 19-529): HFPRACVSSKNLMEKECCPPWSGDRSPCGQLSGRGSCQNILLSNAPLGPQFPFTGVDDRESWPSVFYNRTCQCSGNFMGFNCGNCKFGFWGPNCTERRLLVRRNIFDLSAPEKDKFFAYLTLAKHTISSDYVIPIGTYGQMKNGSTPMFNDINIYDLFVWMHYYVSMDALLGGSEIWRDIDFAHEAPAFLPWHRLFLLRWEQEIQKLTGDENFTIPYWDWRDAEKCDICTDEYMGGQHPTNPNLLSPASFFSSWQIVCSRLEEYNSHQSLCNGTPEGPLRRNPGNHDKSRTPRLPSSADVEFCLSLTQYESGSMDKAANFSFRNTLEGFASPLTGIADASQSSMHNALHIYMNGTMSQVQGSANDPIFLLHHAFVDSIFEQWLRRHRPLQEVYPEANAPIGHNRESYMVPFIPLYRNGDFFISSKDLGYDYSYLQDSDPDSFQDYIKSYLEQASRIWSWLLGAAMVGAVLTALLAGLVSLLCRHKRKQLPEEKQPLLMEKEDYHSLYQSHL

B1: P17 peptide (peptide)
peptide: RRRYWYYR
reduction of total melanin content in MNTI cells (3 days, peptide at twice the IC50) [1]: 38%

B2: P18 peptide (peptide)
peptide: RRYWYWRR
reduction of total melanin content in MNTI cells (3 days, peptide at twice the IC50) [1]: 41%

B3: P16 peptide (peptide)
peptide: RRWWRRYY
reduction of total melanin content in MNTI cells (3 days, peptide at twice the IC50) [1]: 45%

B4: P15 peptide (peptide)
peptide: RRFVCC
modifications: not checked
IC50 [µM], mushroom tyrosinase inhibition (dopachrome OD 475 nm, L-tyrosine substrate) [2]: 1120 µM
